Experimental findings from patent US20230359371A1 (MODERNATX, published 2023) are described below.

This experiment deals with T1, OX40 receptor on mouse CD4+ T-cells (mouse, UniProt P47741 20-272).
T1 sequence (looked up): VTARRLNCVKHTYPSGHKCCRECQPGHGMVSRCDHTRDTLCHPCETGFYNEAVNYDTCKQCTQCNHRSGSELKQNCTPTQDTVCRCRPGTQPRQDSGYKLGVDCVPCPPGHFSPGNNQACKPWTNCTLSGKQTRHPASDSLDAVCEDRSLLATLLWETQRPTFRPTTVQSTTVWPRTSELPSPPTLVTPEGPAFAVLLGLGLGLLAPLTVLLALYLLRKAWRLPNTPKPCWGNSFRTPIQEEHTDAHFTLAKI
Description: cell-based or functional assay.

B1: murine OX40L polypeptide expressed from mOX40L_miR122 mRNA (SEQ ID NO: 66) on the surface of B16F10 cells (ligand)
chain: MEGEGVQPLDENLENGSRPRFKWKKTLRLVVSGIKGAGMLLCFIYVCLQLSSSPAKDPPIQRLRGAVTRCEDGQLFISSYKNEYQTMEVQNNSVVIKCDGLYIIYLKGSFFQEVKIDLHFREDHNPISIPMLNDGRRIVFTVVASLAFKDKVYLTVNAPDTLCEHLQINDGELIVVQLTPGYCAPEGSYHSTVNQVPL
For B1, the “mouse IL-2 production by CD4+ T-cells (IL-2 ELISA), fold over mock-treated or non-translated mRNA control (about 6 ng/ml)” value was about 2 fold.
